In the nanobody polyreactivity screen of Harvey et al. (2022):

Experiment: yeast display, Sf9 membrane polyspecificity reagent, FACS + sequencing; frameworks hold sequencing errors
Outline: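 In a synthetic yeast display library (Saccharomyces cerevisiae BJ5465), nanobody expression was induced with galactose for 36–48 hours. FACS gates were set low and high (top ~1%) using anti-HA fluorescence for expression and streptavidin fluorescence for binding of the Sf9 membrane reagent. Each polyreactivity label is drawn from the gate of origin.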

Sequence: QVQLVQSGGGLVQAGGSLRLICAASGSNFYGNAMGWYRQAPGKERELVAAISRGGGYTYYADSVKGRFTISRDNAKNTVYLEMNSLKPEDTAVYYCDATRYLHPWYYPYYYWGQVTQVTVSS
- polyreactivity (PSR sort gate): low polyreactivity

Sequence: QVQLVESGGGLVQAGGSLRLSCAASGITINGYVMGWYRQAPGKERELVAAITSGARTYYADSVKGRFTISRDNAKNTVYLQMNSLKPEDTAVYYCAASIWLYRYYYWGQGTQVTVSS
- polyreactivity (PSR sort gate): high polyreactivity

Sequence: QVQLVESGGGLVQAGGSLRLSCAASGRIFTHNAMGGYRQAPGKERELVAAITIGGRTNYADSVKGRFTISRDNAKYTVYLQMNSLKPEDTAVYYCDRRYGTWNAYDYWGQGTLVTVSS
- polyreactivity (PSR sort gate): low polyreactivity

Sequence: QVQLVEACGGLVQAGGSLRLSCAASRSIFPYNAMGWYRQAPGKDRELVATMSSGGSTNYADSVKGRFTISRDNAKNTVYLQKNSLKPEDTAVYYCNAEAAYYPLWMDYWGQGTQVTVSS
- polyreactivity (PSR sort gate): low polyreactivity

Sequence: QVQLVESGGGLVQAGGSLRLSSAASGITFATYAMGWYRQAPGKERELVAAISSSTGSTYYADSVKGRFTISRDNAKNTVYLQMNSLKPEDTAVYYCAAVRTQQYDYWGQGTQVTVSS
- polyreactivity (PSR sort gate): low polyreactivity

Sequence: QVKLVESGGGLVQAGGSLRLTCAASGITFFIYAMGWYRQAPGKERELFYAIRSGGSTNYADSVKGRFTISRDNAKNTVYLQMNSLKPEDTAVYYCAADVYGTVRRVGWYYVGEGYDYWGQGTQLTVSS
- polyreactivity (PSR sort gate): low polyreactivity

Sequence: QVQLVESGGGLVQAGGSLRLSCADSARTFNWNAMGWYRQAHGKERELVATISRRGGSTYYADSVKGRFTISRDNAKNTVYLQMNSLKPEDTAVYDCNTAGRYGYDYWGQGTQVTVSS
- polyreactivity (PSR sort gate): high polyreactivity

Sequence: QVQLVESGGCLVQAGGSLRLSCAASGSTFNWNAMGWYRQAPGKERELVAAITSSGARTRYADSVKGRFTISRDNAKNTVYLQMNSLKPEDTAVYYCAAYVYISPSGYYYWGLGTQVTVSS
- polyreactivity (PSR sort gate): low polyreactivity

Sequence: QVQLVESGGGLVQAGGSLRLSCAASGITIGRNTMGWSRQAPRKERELVAAIDSGGNTYADSVKGRFSISRDNAMNTVYLQMNSLKPEDTAVYYCAVDGGEFSSYGFWGQGTQVTVSS
- polyreactivity (PSR sort gate): low polyreactivity

Sequence: QVQLVESGGGLVQAGGSLRLSCAASGRTFWYYAMGWYRPAPGKERELVATITGGARTTYADSVKGRFTISRDNAKNTVYLQMNSLKPEDTAVYYCARARNSVKRGYYYWGQGTQVTVSS
- polyreactivity (PSR sort gate): high polyreactivity

Sequence: QVQLVESGGGLDQAGGSLRLSCAASGSTFFKYAMGWYRQAPAKERELVAAISQNGGSTYYADSVKGRFTISRDNAKNTVYFQMNSLNPEDTAVYYCATGPNSYDYWGQGNQVTVSS
- polyreactivity (PSR sort gate): high polyreactivity

Sequence: QVQLVESGGGLVQAGGSLRLSCAASGRTFYYNGMGWYRQAPGKERELVATITNGGSTNYADSVKGRFTISRDNAKNTVYLQMNSLKPEDTAVYYCAKTLASDCYDYWGQGTQVTVSS
- polyreactivity (PSR sort gate): low polyreactivity

Sequence: QVQLVESGGGLVQAGGSLRISSAASGFNSPSYAMGWYRQAPGKERELVAAISSGDSTNYADSVKGRFTISRDNAKNTVYLLMNSLKPEDTAVYYCAARYREQYDYWGQGTQVTVSS
- polyreactivity (PSR sort gate): low polyreactivity

Sequence: QVQLVESGGGLVQPGGSLRLSCAASGGIFLGNAMGGYRQAPGKERELVAGITWSGGRTYYADSVKGRFTISRDNAKNTVYLQMTSLKPEDTAVYDCNKDTPGTRFYGIYSYDYWGQGTQVTVSS
- polyreactivity (PSR sort gate): low polyreactivity

Sequence: QVQLVESGGGLVQAGGSLRLSCAASGRTFLFYAMGWYRQAPGKERELVASITLNGGSTYYADSVKGRFTISRDNAKNTVYLQMNSLKPEETAVYYCNKRTRYQIGYGYWGQGTQVTVSS
- polyreactivity (PSR sort gate): low polyreactivity

Sequence: QVQLVESAAGLVQAGGSLRLSCAASGIIFPRNVMGWYRQAPGKERELVAAITYSGGRTYYADSVKGRFTISRDNAKNTVYLQMNSLKPEDTAVYYCNADFRSQPYDYWGQGTQVTVSS
- polyreactivity (PSR sort gate): low polyreactivity

Sequence: QVQLVESGGGLVQAVGRLRLSCAASGRILPLYAMGWYRQAPGKEREMVADITGSDGSTYYADSVKGRFSISRDNAKNTVYLQMNSLKPEDTAVYYCATDAIGRTPSDPWDYYYWGQGTQVTVSS
- polyreactivity (PSR sort gate): low polyreactivity

Sequence: QVQIVESGGGLVQAGGSLRLSCDASGFTFFKYAMGWYRHAPGKERELVATISIDCITNYADSVKGRFTISRDNAKNTVYLQMNSLKPEDTAVYYCNARSLYQQLGYWGQGTQVTVSS
- polyreactivity (PSR sort gate): low polyreactivity

Sequence: QVQLVESGGGLVQAGGSLRLSCAASGRTFVTYVMGWYRQAPGKEREFVAAIRWSGGRTYYADSVKGRFTISRDNAKNTVYLQMNSLKPEDTAVYYCAAVYYDRSYRYEYWGQGTQVTVSS
- polyreactivity (PSR sort gate): high polyreactivity

Sequence: QVQLVESGGGLVQAGGSLRLSCAASGRTFGHYAMGWYRQAPGKERELVAAISCRGTSTYYADSVKGRFTISRDNAKNTVYLQMNSLKPEDTAVYYCAAVSVTSYRYDYWGQGTQVTVSS
- polyreactivity (PSR sort gate): high polyreactivity

Sequence: QVQLVESGGGLVQAGGSLRLSCAASGRTFSPNTMGWYRQAPGKEREFVAAITASGDSTYYADSVKGRFTISRDNAKNTVYLQMNSLKPEDTAVYYCDTDSNWYWGFNYWGQGTKVTVSS
- polyreactivity (PSR sort gate): low polyreactivity

Sequence: QVQLQESGGGLVLAGGSLRLSSAATGSISAQAYMGWDRQAPGKEREHVAGINYGDNTNYADSVKGRFTISRDNEHSVSADEQPESGRYRCVLLRGFLELFYYYIYWGQGTQVTVSS
- polyreactivity (PSR sort gate): high polyreactivity

Sequence: QVQLVESGGGLVQAGGSLRLSCAASGFTIDGYAMGWYRQAPGKERELVAAIRRGGRTKYADSVKGRFTISRDNAKNTVYLQLNSLKPEDTAVYYCNAVTRGYYHEMEYWGQGTQVTVSS
- polyreactivity (PSR sort gate): high polyreactivity

Sequence: QVQLVESGGGLVQAGGSLSLSCAASGRTIIRNAMGWYRQAPGKERELVAAINSGGITNYADSVKGRFTISRDNAKNTVYLKMNSLKPEDTAVYYCNARGSYPPYRSYGYWGQGTQVTVSS
- polyreactivity (PSR sort gate): low polyreactivity

Sequence: QVQLVESGGGLVQAGGSLRLSCAASGSTFDRYAMGWYRQAPGKERELVAAITRGGSTYYADSVKGRFTISRDNAKNTVYLQMNSLKPEDTAVYYCAAAQWWFRVRGARYYYWGQGTQVTVSS
- polyreactivity (PSR sort gate): high polyreactivity

Sequence: QVQLVESGGGLVQAGGSLRLSCAASGFIFITYAMGWYRQAPGKEMELVAAITYSDGSTYYADSVKGRFTISRDNAKNTVYLQMNSLKPEDTAVYYCAADSSTFPADYYWGKGTQVTVSS
- polyreactivity (PSR sort gate): low polyreactivity

Sequence: QVQLVESGGRLVQAGGSLRLSCAASGFTFKYYAMGWYTQAPGKERELVAAIRRSAGSTNYADSVKGRFTISRDNAKNTVYLQMNSLKPEDTAVYYCNTVGTRQPMDYWGQGTQVTVSS
- polyreactivity (PSR sort gate): high polyreactivity

Sequence: QVQLVESGGGLVQAGGSLRLRCAASGSTFGPYVMGWYRQAPGKVRELVAVISGGSTDYADSVKGRFTISRDNAKNNVYLQINSLKPEDTAVYYCNAEYYFYLSPTVYLYDYWGQGTQVTVSS
- polyreactivity (PSR sort gate): high polyreactivity

Sequence: QVQLVESGGGLVQAGGSLRLSCAASGFTFWSYAMGWYRPAPGKERELVAAISRGGSTSYADSVKGRFTISRDNAKNTVYLLMNSLKPEDTAVYYCAALRPYRNDKGDYWGQGTQVTVSS
- polyreactivity (PSR sort gate): high polyreactivity

Sequence: QVQLEESGGGLVQAGGSLSLSCDASGRNFEGYAMGWYRQAPGKERELVAAINWSGGTTHYADSVKGRFTISRDNANNTVYLQINSLKPADTAVYYCAVRGRTPYDYWGQGTQVTVSS
- polyreactivity (PSR sort gate): low polyreactivity

Sequence: QVQLQESGGGLVQAGGSLRLSCAASGYISAGRQMGWYRQAPGKEREFVATINGGATTNYADSVKGRFTISRDNAKNSVYLQMNSLKPEDTAVYYCAAVIWYVQDYTYWGQGAQVTVSS
- polyreactivity (PSR sort gate): high polyreactivity

Sequence: QVQLVESGGGLVQAGGSLRLSCAASGITFAYYVMGWYRQAPGKERELVAAINWSGGSTYYADSVKGRFTISRDNAKNTVYLQMNSLKPEDTAVYYCAADWSTWYGEKFYWGHGTQVTVSS
- polyreactivity (PSR sort gate): high polyreactivity
